Reference: paper PMC2721907 (Nature structural & molecular biology, 2009)
Square brackets hold non-standard residues; d marks the D form. Ends that are not written are not given here. F2Pmab = 2-amino-4,4-difluoro-3-methyl-4-phosphobutanoic acid (p-Thr mimetic); pT = C[C@@H](OP(=O)(O)O)[C@H](N)C(=O)O

B1: PLHSpTA, N-terminally acetylated (peptide)
peptide: Ac-PLHS[pT]A
B2: LHSpTAI, N-terminally acetylated (peptide)
peptide: Ac-LHS[pT]AI
B3: LHSpT, N-terminally acetylated (peptide)
peptide: Ac-LHS[pT]
B4: HSpTA, N-terminally acetylated (peptide)
peptide: Ac-HS[pT]A

Target: Plk2 PBD (purified recombinant)
Assay: ITC

Plk2 PBD (purified recombinant), sequence (Q9NYY3 whole entry): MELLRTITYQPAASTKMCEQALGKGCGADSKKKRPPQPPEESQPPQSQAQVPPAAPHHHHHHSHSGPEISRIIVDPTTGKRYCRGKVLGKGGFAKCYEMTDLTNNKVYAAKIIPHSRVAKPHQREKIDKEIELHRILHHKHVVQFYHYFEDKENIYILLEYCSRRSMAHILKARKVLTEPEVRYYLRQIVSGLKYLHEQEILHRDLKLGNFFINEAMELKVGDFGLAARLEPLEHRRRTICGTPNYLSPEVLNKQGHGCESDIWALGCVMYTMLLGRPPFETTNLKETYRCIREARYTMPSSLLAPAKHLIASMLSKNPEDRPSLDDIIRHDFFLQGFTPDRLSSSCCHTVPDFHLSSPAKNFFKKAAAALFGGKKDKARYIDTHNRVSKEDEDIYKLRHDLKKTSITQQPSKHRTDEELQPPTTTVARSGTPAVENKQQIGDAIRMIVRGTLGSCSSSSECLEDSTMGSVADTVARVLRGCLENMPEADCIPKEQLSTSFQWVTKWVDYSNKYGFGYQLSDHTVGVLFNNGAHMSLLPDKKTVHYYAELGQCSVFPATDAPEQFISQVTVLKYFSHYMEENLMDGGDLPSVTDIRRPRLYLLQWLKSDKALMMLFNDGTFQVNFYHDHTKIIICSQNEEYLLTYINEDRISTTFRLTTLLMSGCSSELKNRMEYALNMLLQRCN

In order of falling calorimetric initial heat of interaction:
1. PLQSpT, N-terminally acetylated (peptide)  -1.1 kcal/mol
2. MQSpTPL, N-terminally acetylated (peptide)  -1.68 kcal/mol

Target: Plk1 PBD (purified recombinant) (human)
Assay: ITC

In order of rising Kd:
1. B2  247 nM
2. B1  262 nM
3. Ac-PLHSpT (peptide)  445 nM
4. B4  19500 nM
5. B3  22100 nM

In order of rising dH:
1. B1  -11.6 kcal/mol
2. B2  -11.3 kcal/mol
3. MQSpTPL, N-terminally acetylated (peptide)  -10 kcal/mol
4. LHSpTA, N-terminally acetylated (peptide)  -9.9 kcal/mol
5. B3  -6.29 kcal/mol
6. B4  -3.82 kcal/mol

Target: Plk1 (Homo sapiens, UniProt P53350)
Assay: Peptide pull-down of Plk1 from HeLa lysates with bead-immobilized peptides

Plk1, sequence (P53350 367-603 limits assumed): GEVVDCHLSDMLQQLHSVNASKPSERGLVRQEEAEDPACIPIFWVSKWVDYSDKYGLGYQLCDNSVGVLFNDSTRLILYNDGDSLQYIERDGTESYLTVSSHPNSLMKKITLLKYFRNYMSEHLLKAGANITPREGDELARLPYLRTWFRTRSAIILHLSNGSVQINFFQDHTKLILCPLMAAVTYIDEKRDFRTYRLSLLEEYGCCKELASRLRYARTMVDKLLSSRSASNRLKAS

For “PLHS-F2Pmab-A: 6-mer p-T78 mimetic peptide containing 2-amino-4,4-difluoro-3-methyl-4-phosphobutanoic acid (F2Pmab) (PLHS[F2Pmab]A-NH2)”, the “Plk1 binding in peptide pull-down (in words)” value was “precipitated Plk1”.
For PLHA-Pmab (PLHAT), the “Plk1 binding in peptide pull-down (in words)” value was “abolished the Plk1 binding”.
